# Measurements taken from patent US20240309087A1 (SHANGHAI JUNSHI BIOSCIENCES, published 2024).
# T1: hCD112R mFC recombinant protein (human; murine, UniProt Q6DKI7 41-160)
# T1 construct: range 41-160; expressed in 293E cells; also called hCD112R ECD mFC; hCD112R-ECD-mFC; not shown: murine IgG2a Fc domain (MX2-mFc vector)
# T1 sequence (looked up): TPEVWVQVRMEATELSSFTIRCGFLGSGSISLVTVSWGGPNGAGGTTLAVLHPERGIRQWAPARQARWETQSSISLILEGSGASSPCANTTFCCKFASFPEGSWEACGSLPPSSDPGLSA
# T2: human CD112R on Jurkat CD112R effector cells (human, UniProt Q6DKI7 1-326)
# T2 sequence (looked up): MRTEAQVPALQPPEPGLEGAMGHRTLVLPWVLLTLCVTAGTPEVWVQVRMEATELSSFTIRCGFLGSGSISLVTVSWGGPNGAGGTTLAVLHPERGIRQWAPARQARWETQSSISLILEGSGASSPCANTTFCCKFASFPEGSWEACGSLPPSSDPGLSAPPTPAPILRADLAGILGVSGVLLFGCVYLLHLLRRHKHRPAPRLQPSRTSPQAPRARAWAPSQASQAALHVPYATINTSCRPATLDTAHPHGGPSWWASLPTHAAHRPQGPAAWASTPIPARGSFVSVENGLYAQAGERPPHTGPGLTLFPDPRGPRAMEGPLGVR
# Experiments:
# [1] = molecular target: T1, hCD112R mFC recombinant protein; assay: FACS competition, hCD112R mFc on CHO CD112 cells
# Summary of the method: (§1)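 CHO cells overexpressing human CD112 were co-incubated 30 min at 4 °C with hCD112R mFc (5 μg/mL) and humanized anti-CD112R antibodies (from 100 μg/mL, 3-fold, 10 points). Bound fusion protein detected with anti-mouse IgG Fc secondary by flow cytometry; IC50 from four-parameter fit of MFI. COM701 served as positive control, anti-KLH hu-IgG4 as negative.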
# [2] = molecular target: T1, hCD112R mFC recombinant protein; assay: ELISA, coated hCD112R-ECD-mFC; EC50 COM701/EC50 antibody
# Summary of the method: (§2)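 Plates coated with hCD112R-ECD-mFC at 1.5 μg/mL; humanized antibodies titrated from 1 μg/mL, 2.5-fold, 12 points. Bound antibody detected with HRP anti-human IgG Fc and TMB, read at 420/620 nm; EC50 from 4PL fit, COM701 and anti-KLH hu-IgG4 as controls.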
# [3] = molecular target: T2, human CD112R on Jurkat CD112R effector …; assay: cell-based or functional assay
# [4] = molecular target: T1, hCD112R mFC recombinant protein; assay: FACS competition, hCD112R mFc on CHO CD112 cells; IC50 COM701/IC50 antibody
# Summary of the method: as §1
# [5] = molecular target: T1, hCD112R mFC recombinant protein; assay: ELISA, coated hCD112R-ECD-mFC
# Summary of the method: as §2
IC50 [1] [µg/mL],Relative activity (%) [2] [%],"EC50, CD112R/CD112 reporter [3] [µg/mL]","Relative activity (%), EC50 COM701/EC50 antibody [3] [%]",Relative activity (%) [4] [%],EC50 [5] [µg/mL],Binder
3.25,145,0.0241,300,74.1,0.00631,"Hu54 (antibody, IgG4, V domains shown, humanized IgG4) VH: EVQLVESGGGLVKPGGSLRLSCAASGFTFSSYHMSWVRQAPGKGLELVSAINSNGINTYYLDTVKGRFTISRDNAKNSLYLQMNSLRAEDTAVYYCARHEDYYGFAMDYWGQGTLVTVSS VL: EIVMTQSPPTLSLSPGERVTLSCKASQSVSNDVAWYQQKPGQAPRLLIYYVSNRFTGIPARFSGSGSGTDFTLTISSLQPEDFAVYFCQQAYRSPWTFGQGTKLEIK"
3.64,171,1.33,4.5,66.2,0.00535,"Hu57 (antibody, IgG4, V domains shown, humanized IgG4) VH: EVQLVESGGGLVQPGGSLRLSCAASGFTFSSYHMSWIRQAPGKGLELVAAINSNGINTYYLDTVKGRFTISRDNAKNSLYLQMNSLRAEDTAVYYCARHEDYYGFAMDYWGQGTLVTVSS VL: EIVMTQSPPTLSLSPGERVTLSCKASQSVSNDVAWYQEKPGQAPRLLIYYVSHRFTGIPARFSGSGSGTDFTLTISSLQPEDFAVYYCHQAYRSPWTFGQGTKLEIK"
3.49,139,0.0225,261,69,0.00602,"Hu60 (antibody, IgG4, V domains shown, humanized IgG4) VH: EVQLVESGGGLVQPGGSLRLSCAASGFTFSSYHMSWIRQAPGKGLELVAAINSNGINTYYLDTVKGRFTISRDNAKNSLYLQMNSLRAEDTAVYYCARHEDYYGFAMDYWGQGTLVTVSS VL: EIVMTQSPPTLSLSPGERVTLSCKASQSVSNDVAWYQQKPGQAPRLLIYYVSNRFTGIPARFSGSGSGTDFTLTISSLQPEDFAVYFCQQAYRSPWTFGQGTKLEIK"
2.67,156,0.0267,191,134,0.00425,"Hu22 (antibody, IgG4, V domains shown, humanized IgG4) VH: EVQLVESGGGLVKPGGSLRLSCAASGFTFSSYHMSWVRQAPGKGLELVSAISRDGDSTYYPDTVKGRFTISRDDAENSLYLQMNSLRAEDTAVYYCSRHEDYFGFAMDSWGQGTLVTVSS VL: DIVMTQSPDSLAVSLGERATINCKASQSVSNDVAWYQQKPGQPPKLLIYYVSHRFTGVPDRFSGSGSGTDFTLTISSLQAEDVAVYFCHQAYRSPWTFGQGTKLEIK"
2.27,127,0.0306,232,157,0.00479,"Hu28 (antibody, IgG4, V domains shown, humanized IgG4) VH: EVQLVESGGGLVQPGGSLRLSCAASGFTFSSYHMSWVRQAPGKGLELVAAISRDGDSTYYPDTVKGRFTISRDNAKNSLYLQMNSLRAEDTAVYYCSRHEDYFGFAMDSWGQGTLVTVSS VL: DIVMTQSPDSLAVSLGERATINCKASQSVSNDVAWYQQKPGQPPKLLIYYVSHRFTGVPDRFSGSGSGTDFTLTISSLQAEDVAVYFCHQAYRSPWTFGQGTKLEIK"
3.67,147,0.0272,230,97,0.00413,"Hu29 (antibody, IgG4, V domains shown, humanized IgG4) VH: EVQLVESGGGLVQPGGSLRLSCAASGFTFSSYHMSWVRQAPGKGLELVAAISRDGDSTYYPDTVKGRFTISRDNAKNSLYLQMNSLRAEDTAVYYCSRHEDYFGFAMDSWGQGTLVTVSS VL: DIQMTQSPSSLSASVGDRVTITCKASQSVSNDVAWYQQKPGKAPKLLIYYVSNRFTGVPSRFSGSGSGTDFTLTISSLQPEDFATYFCQQAYRSPWTFGQGTKLEIK"
